System: Escherichia coli TOP10
Test: shrunken log2 fold change of peptide-encoding DNA abundance (4.5 h post-induction vs induction); higher = less antimicrobial activity (less host growth inhibition)
Settings: time post-induction: 4.5 h; library: site-saturation at positions 5, 18, 19, 20
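Also: peptides expressed intracellularly from a pBAD plasmid library in pooled LB shake-flask culture, induced with 0.3% L-arabinose, DNA abundance read by NGS, three biological replicates, DESeq2 with apeglm shrinkage.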

| Sequence | shrunken log2 fold change |
| --- | --- |
| RRIRMRPPRLPRPRPRPAKCPRP | 0.147 |
| RRIRERPPRLPRPRPRPIWHPRP | -0.0406 |
| RRIRGRPPRLPRPRPRPENNPRP | 0.502 |
| RRIRVRPPRLPRPRPRPCIKPRP | -0.592 |
| RRIRQRPPRLPRPRPRPGQNPRP | -0.223 |
| RRIRPRPPRLPRPRPRPEFPPRP | -0.00714 |
| RRIRERPPRLPRPRPRPYREPRP | -0.00865 |
| RRIRKRPPRLPRPRPRPYVWPRP | -0.36 |
| RRIRTRPPRLPRPRPRPWHQPRP | -0.0236 |
| RRIRRRPPRLPRPRPRPRAAPRP | 0.833 |
| RRIRNRPPRLPRPRPRPETLPRP | 0.373 |
| RRIRGRPPRLPRPRPRPECRPRP | 1.32 |
| RRIRLRPPRLPRPRPRPRFKPRP | 0.0114 |
| RRIRRRPPRLPRPRPRPWMLPRP | 0.227 |
| RRIRRRPPRLPRPRPRPTIGPRP | -0.229 |
| RRIRNRPPRLPRPRPRPKMEPRP | 0.015 |
| RRIRHRPPRLPRPRPRPYLIPRP | -0.574 |
| RRIRGRPPRLPRPRPRPYFYPRP | -0.03 |
| RRIRWRPPRLPRPRPRPQVVPRP | -0.00458 |
| RRIRYRPPRLPRPRPRPSCCPRP | -0.472 |
| RRIRNRPPRLPRPRPRPRELPRP | 0.287 |
| RRIRKRPPRLPRPRPRPAYEPRP | 0.0198 |
| RRIRQRPPRLPRPRPRPIHLPRP | -0.137 |
| RRIRFRPPRLPRPRPRPYATPRP | -0.419 |
| RRIRPRPPRLPRPRPRPMWKPRP | -0.146 |

| Sequence | shrunken log2 fold change |
| --- | --- |
| RRIRFRPPRLPRPRPRPCFPPRP | -0.407 |
| RRIRSRPPRLPRPRPRPLIHPRP | -0.279 |
| RRIRQRPPRLPRPRPRPEFKPRP | -0.0763 |
| RRIRIRPPRLPRPRPRPIHFPRP | -0.0704 |
| RRIRVRPPRLPRPRPRPFAWPRP | 0.384 |
| RRIRWRPPRLPRPRPRPCIAPRP | 0.00205 |
| RRIRQRPPRLPRPRPRPGCDPRP | -0.229 |
| RRIRTRPPRLPRPRPRPKHYPRP | -0.339 |
| RRIRKRPPRLPRPRPRPNKSPRP | 0.0234 |
| RRIRARPPRLPRPRPRPHIGPRP | -0.175 |
| RRIRKRPPRLPRPRPRPRWFPRP | 0.295 |
| RRIRWRPPRLPRPRPRPGFDPRP | 0.517 |
| RRIRERPPRLPRPRPRPAEKPRP | -0.0431 |
| RRIRGRPPRLPRPRPRPPNPPRP | 0.74 |
| RRIRHRPPRLPRPRPRPRGTPRP | -0.164 |
| RRIRVRPPRLPRPRPRPSLDPRP | -0.0324 |
| RRIRDRPPRLPRPRPRPLWFPRP | -0.0862 |
| RRIRHRPPRLPRPRPRPKKPPRP | -0.125 |
| RRIRHRPPRLPRPRPRPDDCPRP | -0.00674 |
| RRIRNRPPRLPRPRPRPIGRPRP | -0.0141 |
| RRIRFRPPRLPRPRPRPLIQPRP | -0.289 |
| RRIRKRPPRLPRPRPRPGLFPRP | 0.556 |
| RRIRARPPRLPRPRPRPACNPRP | 0.089 |
| RRIRLRPPRLPRPRPRPTWSPRP | 0.201 |
| RRIRNRPPRLPRPRPRPEFTPRP | -0.161 |

| Sequence | shrunken log2 fold change |
| --- | --- |
| RRIRRRPPRLPRPRPRPSQIPRP | 0.092 |
| RRIRYRPPRLPRPRPRPHVHPRP | -0.00398 |
| RRIRFRPPRLPRPRPRPEMNPRP | -0.253 |
| RRIRNRPPRLPRPRPRPSYNPRP | -0.974 |
| RRIRARPPRLPRPRPRPLYWPRP | -0.194 |
| RRIRPRPPRLPRPRPRPQIDPRP | -0.0108 |
| RRIRKRPPRLPRPRPRPMTDPRP | 0.103 |
| RRIRKRPPRLPRPRPRPYTFPRP | -0.264 |
| RRIRNRPPRLPRPRPRPLKRPRP | -0.0368 |
| RRIRKRPPRLPRPRPRPRHHPRP | 0.476 |
| RRIRRRPPRLPRPRPRPLGRPRP | -0.143 |
| RRIRPRPPRLPRPRPRPCDVPRP | -0.155 |
| RRIRYRPPRLPRPRPRPDGQPRP | 0.0173 |
| RRIRLRPPRLPRPRPRPWVPPRP | -0.569 |
| RRIRSRPPRLPRPRPRPPNMPRP | -0.118 |
| RRIRPRPPRLPRPRPRPSGLPRP | -0.199 |
| RRIRKRPPRLPRPRPRPILSPRP | 0.00626 |
| RRIRQRPPRLPRPRPRPGFIPRP | -0.408 |
| RRIRMRPPRLPRPRPRPSKEPRP | 0.203 |
| RRIRSRPPRLPRPRPRPWEVPRP | 0.188 |
| RRIRRRPPRLPRPRPRPLQQPRP | 0.0366 |
| RRIRYRPPRLPRPRPRPHPPPRP | 0.374 |
| RRIRMRPPRLPRPRPRPYSLPRP | -0.129 |
| RRIRLRPPRLPRPRPRPHFFPRP | -0.128 |
| RRIRKRPPRLPRPRPRPLDYPRP | -0.202 |

— the supplement of paper PMC9112550, “Optimization of the antimicrobial peptide Bac7 by deep mutational scanning” (BMC Biology, 2022)
